The values below come from the FLAb antibody collection (doi:10.7554/elife.23156).

First the molecules themselves.
B1: scFv; the commonest letter at each place (parent)
chain 1: EVKLDETGGGLVQPGRPMKLSCVASGFTFSDYWMNWVRQSPEKGLEWVAQIRNKPYNYETYYSDSVKGRFTISRDDSKSSVYLQMNNLRVEDMGIYYCTGSYYGMDYWGQGTSVTVS
chain 2: DVVMTQTPLSLPVSLGDQASISCRSSQSLVHSNGNTYLRWYLQKPGQSPKVLIYKVSNRFSGVPDRFSGSGSGTDFTLKISRVEAEDLGVYFCSQSTHVPWTFGGGTKLEIK

The variants in the series “fluorescein” derive from B1. Kind of series: Kd (Tite-Seq). Conditions: with fluorescein; format: scFv 4-4-20, heavy + light.
In series [1] the parent is B1. Kind of series: yeast surface expression (ratio to wild type); higher = more expressed. The settings on record: format: scFv 4-4-20, heavy + light.

Usually Kd stands for a measure of binding affinity in units of concentration. Turning to chain 1 M105R, the Kd with fluorescein was determined as 0.021 µM. Moreover, in series [1], the yeast surface expression was determined as 1.

As to chain 1 W108Y, in the series with fluorescein, the Kd was ≤ 0.000316 µM. Also, the yeast surface expression in series [1] was determined as 0.963.

chain 1 D106G Y107W: the dissociation constant Kd with fluorescein was ≥ 10 µM. The yeast surface expression in series [1] came out at 0.338.

Take chain 1 S101T Y103E G104K: the Kd with fluorescein is ≥ 10 µM. Further, the yeast surface expression in series [1] was 0.854.

Consider chain 1 W33Q, for which, in the series with fluorescein, the Kd is ≥ 10 µM. The yeast surface expression in series [1] came out at 1.01.

On to chain 1 W33K, for which the Kd with fluorescein was ≥ 10 µM. Moreover, the yeast surface expression in series [1] stood at 0.699.

As for chain 1 W33H, the Kd with fluorescein was ≥ 10 µM. The yeast surface expression in series [1] was determined as 0.765.

In the case of chain 1 W33G, the Kd with fluorescein was ≥ 10 µM. In series [1], the yeast surface expression is 0.809.

On to chain 1 T28K S30H, for which the equilibrium dissociation constant (Kd) with fluorescein was determined as 0.00142 µM. For the same variant, the yeast surface expression in series [1] amounted to 0.814.

With chain 1 Y103Q M105G, in the series with fluorescein, the Kd was ≥ 10 µM. Also, the yeast surface expression in series [1] came out at 0.906.

As to chain 1 N35A, the Kd in the series with fluorescein is ≥ 10 µM. In addition, in series [1], the yeast surface expression stood at 0.902.

With chain 1 S101P Y103R, in the series with fluorescein, the dissociation constant (Kd) was ≥ 10 µM. The yeast surface expression in series [1] was determined as 0.277.

For chain 1 T28P S30N, the dissociation constant (Kd) with fluorescein was 0.000989 µM. In series [1], the yeast surface expression was 1.1.

As to chain 1 T28P S30K, in the series with fluorescein, the Kd was ≤ 0.000316 µM. Besides, in series [1], the yeast surface expression turned out to be 1.02.

Turning to chain 1 Y32G V37P, the Kd in the series with fluorescein is ≥ 10 µM. The yeast surface expression in series [1] was 0.972.

Take chain 1 Y103F M105T: the Kd with fluorescein is ≥ 10 µM. In addition, the yeast surface expression in series [1] is 1.01.

Consider chain 1 F29T Y32P, for which the Kd with fluorescein is ≥ 10 µM. Besides, the yeast surface expression in series [1] was 0.901.

As to chain 1 F29Q S30Q, the Kd in the series with fluorescein came to 0.0146 µM. The yeast surface expression in series [1] amounted to 0.966.

Consider chain 1 M34A W36T, for which, in the series with fluorescein, the Kd is ≥ 10 µM. In series [1], the yeast surface expression is 0.544.

For the variant chain 1 Y103V, the Kd with fluorescein was 0.0158 µM. In series [1], the yeast surface expression came out at 0.701.

Regarding chain 1 G100E Y102S W108I, the Kd in the series with fluorescein is 0.0302 µM. In addition, the yeast surface expression in series [1] is 0.245.

Take chain 1 S101L D106G: in the series with fluorescein, the equilibrium dissociation constant (Kd) is ≥ 10 µM. The yeast surface expression in series [1] is 0.289.

For the variant chain 1 Y102G Y103D, in the series with fluorescein, the Kd is ≥ 10 µM. The yeast surface expression in series [1] is 1.29.

Turning to chain 1 D31Q Y32R V37Q, the Kd with fluorescein is ≥ 10 µM. The yeast surface expression in series [1] was 0.133.

In the case of chain 1 Y103I M105W, in the series with fluorescein, the equilibrium dissociation constant (Kd) worked out at 0.0146 µM. The yeast surface expression in series [1] was determined as 0.528.

As for chain 1 S101W G104W, in the series with fluorescein, the Kd was ≥ 10 µM. Further, the yeast surface expression in series [1] is 0.254.

In the case of chain 1 Y103T G104Q, the Kd with fluorescein was ≥ 10 µM. Also, the yeast surface expression in series [1] is 0.9.

Regarding chain 1 M105T G109V, the Kd with fluorescein is ≥ 10 µM. The yeast surface expression in series [1] was 0.216.

With chain 1 M105T G109L, the Kd with fluorescein is ≥ 10 µM. Moreover, in series [1], the yeast surface expression is 0.188.

chain 1 G100D D106W: the Kd in the series with fluorescein was ≥ 10 µM. In addition, the yeast surface expression in series [1] was determined as 0.254.

As for chain 1 G100D D106Q, the Kd with fluorescein is ≥ 10 µM. The yeast surface expression in series [1] stood at 0.17.

chain 1 F29A V37I: the Kd in the series with fluorescein was determined as 0.0851 µM. Besides, the yeast surface expression in series [1] came to 0.834.

On to chain 1 Y103M M105H D106Y, for which, in the series with fluorescein, the Kd was ≥ 10 µM. Also, the yeast surface expression in series [1] came out at 0.63.

As for chain 1 S101F Y102A, the equilibrium dissociation constant (Kd) with fluorescein was ≥ 10 µM. Besides, the yeast surface expression in series [1] is 0.623.

With chain 1 S101C G104V D106F, in the series with fluorescein, the equilibrium dissociation constant (Kd) was ≥ 10 µM. In series [1], the yeast surface expression amounted to 0.361.

On to chain 1 D106S W108V, for which the Kd with fluorescein is 0.55 µM. In series [1], the yeast surface expression came out at 0.859.

Turning to chain 1 S30M N35V V37A, in the series with fluorescein, the Kd was ≥ 10 µM. In series [1], the yeast surface expression worked out at 0.167.

For the variant chain 1 S30K Y32S M34V, in the series with fluorescein, the Kd was ≥ 10 µM. The yeast surface expression in series [1] is 0.837.

As for chain 1 Y102W G104H G109I, the Kd in the series with fluorescein was ≥ 10 µM. For the same variant, the yeast surface expression in series [1] stood at 0.0981.

On to chain 1 S101M G109H, for which the equilibrium dissociation constant (Kd) with fluorescein is ≥ 10 µM. For the same variant, in series [1], the yeast surface expression came out at 0.229.

Take chain 1 Y102E G109K: in the series with fluorescein, the Kd was ≥ 10 µM. The yeast surface expression in series [1] turned out to be 0.317.

chain 1 S30V D31P: in the series with fluorescein, the Kd was ≥ 10 µM. The yeast surface expression in series [1] turned out to be 0.754.

As for chain 1 S101D Y103A, in the series with fluorescein, the Kd was ≥ 10 µM. In series [1], the yeast surface expression was determined as 1.07.

With chain 1 T28Y F29W, in the series with fluorescein, the dissociation constant Kd is ≥ 10 µM. Further, the yeast surface expression in series [1] stood at 0.672.

Take chain 1 D31T M34Y: the Kd with fluorescein turned out to be 0.0494 µM. Also, in series [1], the yeast surface expression stood at 0.706.

chain 1 S101D Y107E: in the series with fluorescein, the Kd was ≥ 10 µM. Further, the yeast surface expression in series [1] was found to be 1.03.

On to chain 1 G104E W108G, for which the dissociation constant Kd with fluorescein is ≥ 10 µM. The yeast surface expression in series [1] worked out at 0.296.

Turning to chain 1 D31H W33L, the Kd in the series with fluorescein is ≥ 10 µM. In addition, the yeast surface expression in series [1] was 0.72.

For chain 1 Y102E D106S, in the series with fluorescein, the Kd is ≥ 10 µM. The yeast surface expression in series [1] was found to be 1.01.

Turning to chain 1 F29H N35V, in the series with fluorescein, the Kd came out at 0.00251 µM. In series [1], the yeast surface expression was determined as 2.76.

Take chain 1 Y102W G109P: in the series with fluorescein, the Kd was ≥ 10 µM. For the same variant, the yeast surface expression in series [1] is 0.245.

In the case of chain 1 Y102W G109V, in the series with fluorescein, the Kd was ≥ 10 µM. Also, the yeast surface expression in series [1] came to 0.19.

Take chain 1 Y103K G109W: in the series with fluorescein, the Kd was ≥ 10 µM. For the same variant, in series [1], the yeast surface expression amounted to 0.123.

With chain 1 Y107E W108K, the Kd in the series with fluorescein is ≥ 10 µM. In series [1], the yeast surface expression was 0.513.

Regarding chain 1 M105S D106S, the Kd in the series with fluorescein came to 6.96 µM. In series [1], the yeast surface expression was determined as 0.843.

On to chain 1 Y102F Y103I, for which the Kd with fluorescein was 0.0729 µM. Also, the yeast surface expression in series [1] came out at 0.793.

For chain 1 M34L N35I, in the series with fluorescein, the Kd was ≥ 10 µM. In addition, the yeast surface expression in series [1] is 0.531.

chain 1 M34Q: the Kd in the series with fluorescein worked out at 9.5 µM. In series [1], the yeast surface expression is 0.801.
